Laboratory results: patent publication US10633455B2, “Method for treating and diagnosing disease using inhibitors of goodpasture antigen binding protein” (Fibrostatin S.L., priority 2011, dated 2020)

Legend:
GPBP = biological target: T1, GPBP (Homo sapiens, UniProt Q9Y5P4); assay: Inhibition of autophosphorylating activity of GPBP in vitro; format: biochemical; conditions: Pretswick Chemical Library selection (not shown)
T1 sequence (Q9Y5P4 1-624): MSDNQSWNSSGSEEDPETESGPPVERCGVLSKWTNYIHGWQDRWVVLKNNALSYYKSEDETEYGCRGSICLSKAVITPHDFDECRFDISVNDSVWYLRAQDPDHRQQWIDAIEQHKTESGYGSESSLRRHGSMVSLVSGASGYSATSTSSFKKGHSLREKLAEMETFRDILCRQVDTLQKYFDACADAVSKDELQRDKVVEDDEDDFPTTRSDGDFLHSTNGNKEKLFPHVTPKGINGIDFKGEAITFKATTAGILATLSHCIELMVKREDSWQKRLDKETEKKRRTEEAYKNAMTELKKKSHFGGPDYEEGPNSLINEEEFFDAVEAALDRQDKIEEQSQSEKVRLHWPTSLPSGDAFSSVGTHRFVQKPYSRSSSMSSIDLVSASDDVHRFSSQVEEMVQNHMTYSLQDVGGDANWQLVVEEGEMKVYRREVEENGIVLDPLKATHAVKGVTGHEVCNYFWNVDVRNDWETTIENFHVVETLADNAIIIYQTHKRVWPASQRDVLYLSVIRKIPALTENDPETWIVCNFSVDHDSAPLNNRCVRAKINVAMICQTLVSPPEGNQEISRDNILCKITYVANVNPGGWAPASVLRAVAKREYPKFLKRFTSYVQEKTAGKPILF

doxorubicin-induced PF = assay: Doxorubicin-induced pulmonary fibrosis in mice; format: in vivo, C57BL/6 male mice
Method: For induction of PF with doxorubicin (Example 3), eight to ten weeks-old C57BL/6 male mice were purchased from Harlan Ibérica (Barcelona, Spain). For intratracheal (i.t.) instillation of doxorubicin (Sigma), mice were anesthetized by intraperitoneal (i.p.) injection of ketamine (50 μg/g of body weight), atropine sulphate (0.2 μg/g) and diazepam (4 μg/g). The trachea was localized by cutaneous incision in the anterior face of the neck and immobilized with forceps. Then 75 μl of doxorubicin chlorhydrate (1 mg/ml) were injected i.t. with a 30 G needle. Skin was then sutured with 3/0 silk. Mice were fed ad libitum with a normal chow diet and bled from the retro-orbital plexus at different time points after doxorubicin i.t. instillation. […] Mice instilled i.t. with doxorubicin were daily injected i.p. with either with 0.027, 0.08, 0.25 or 1.225 mg/kg of Pinacidil or with 0.11, 0.34 or 0.95 mg/kg of Myricetin. Mice were sacrificed twelve days after doxorubicin administration for gene expression analysis and anatomopathological studies of the lungs.
In PF assays, mouse lungs were intrabronchially perfused with 4% phosphate buffered formalin, then incubated in this fixative during 24 hours and finally embedded in paraffin. Tissue sections of 5 μm were stained with HE or with Masson's trichrome following conventional methods. For immunohistochemistry, paraffin-embedded lungs were stained with anti-GPBP-pep1 antibodies (3), which was detected with anti-chicken-HPR and DAB substrate (Dako Diagnósticos, S.A., Barcelona Spain). Specimens were counterstained with hematoxylin.
In assays of experimental pulmonary fibrosis, the expression of GPBP and of collagens type I and type IV mRNAs in the lung was analyzed by real-time quantitative PCR (RT-qPCR). One μg of the isolated RNA was used for cDNA synthesis with a RT-PCR kit (Amersham Pharmacia Biotech, Piscataway, N.J.), according to the manufacturer instructions. RT-qPCR was performed on a MX-3000P Stratagene instrument (Agilent Technologies, Inc., Santa Clara, Calif.) using specific primers SYBR Green PCR Master Mix (Applied Biosystems, Life Technologies Corporation). Primers used were: for α1(I) collagen gene, 5′ primer 5′-[…]-3′ (SEQ ID NO: 12) and 3′ primer 5′-[…]-3′ (SEQ ID NO: 13); for GPBP gene, 5′ primer 5′-[…]-3′ (SEQ ID NO: 14) and 3′ primer 5′-[…]-3′(SEQ ID NO: 15); for 18S gene, 5′ primer 5′-[…]-3′ (SEQ ID NO: 16) and 3′ primer 5′-[…]-3′ (SEQ ID NO: 17). Results (in triplicate) were normalized to the ribosomal 18S subunit expression and measured in parallel in each sample. Data were expressed as mean fold change relative to control samples.

A549 cells = assay: mRNA expression profile / KEGG pathway analysis of A549 cells cultured with rcGPBP-1; format: cell-based, human; conditions: 200 ng/mL
Method: Human A549 cells were cultured with or without 200 ng/mL of rcGPBP-1 for 3 hours. Then cells were lysed and total RNA was extracted with RNeasy™ Protect mini kit (Qiagen, Valencia, Calif.) according to manufacturer's recommendations. RNA was quantified by spectrometry with a NanoDrop™ ND1000 (NanoDrop Technologies, Wilminton, Del.) and quality confirmed by RNA 6000 Nano Bioanalyzer (Agilent Technologies, Palo Alto, Calif.) assay. Briefly, 150 ng of total RNA were used to produce Cyanine 3-CTP-labeled cRNA using the Low Input Quick™ Amp Labelling Kit One-Color (Agilent) according to the manufacturer's instructions. Following ‘One-Color Microarray-Based Gene Expression Analysis’ protocol Version 6.0 (Agilent), 1600 ng of labelled cRNA were hybridized with the Whole Human Genome Oligo Microarray Kit (Agilent) containing 41000+ unique human genes and transcripts. Arrays were scanned in an Agilent Microarray Scanner according to the manufacturer's instructions and data extracted using Agilent Feature Extraction Software 10.7.1 following the Agilent protocol GE1_107_Sep09, grid template 014850_D_F_20100430 and the QC Metric Set GE1_QCMT_Sep09. Analysis was performed in the Genomics Core Service of the Centro de Investigación Príncipe Felipe (Valencia, Spain) using an Agilent Microarray Scanner (Agilent Technologies, Palo Alto, Calif.).
Raw data files were background corrected using supplier's methodology and intensity signal standardized across arrays via quantile normalization algorithm. Differential gene expression assessment of all comparisons was carried out using limma moderated t-statistics. Conventional adjustment for multiple testing proposed by Benjamini Hochberg (5) was used to derive adjusted P-values. Also, for each of the comparisons performed in the study, gene set analysis was carried out using logistic regression models, and correcting for multiple testing as before (5). All analyses where carried out using Babelomics™ (6) web suite at the Bioinformatics Department of Centro de Investigación Príncipe Felipe. Array data have been deposited in GEO (accession number GSE32181).

[1] = A549 + rcGPBP-1 vs A549, 3 hours, P. adjusted 0.1576

Molecule	autophosphorylating activity of GPBP (GPBP)	doxorubicin-induced fibrosis (α1(I) collagen mRNA) (doxorubicin-induced PF; all doses tested (0.11, 0.34 or 0.95 mg/kg daily i.p.), day 12 (FIG. 11B))	expression of pulmonary α1(I) collagen mRNA (doxorubicin-induced PF; daily dose of 0.08 mg/kg i.p., day 12, RT-qPCR (FIG. 11A))	severity of doxorubicin-induced pulmonary fibrosis (doxorubicin-induced PF; daily dose of 0.08 mg/kg i.p., days 0-12, histology (FIG. 10))	therapeutic effect (α1(I) collagen mRNA) (doxorubicin-induced PF; higher doses, 0.25 or 1.225 mg/kg/day (FIG. 11A))	Log Odds Ratio, KEGG pathway hsa05322 SLE (A549 cells; A549 + rcGPBP-1 vs A549, 3 hours, P. adjusted 0.0003)	Log Odds Ratio, KEGG pathway hsa00380 Tryptophan metabolism (A549 cells; [1])	Log Odds Ratio, KEGG pathway hsa04120 Ubiquitin mediated proteolysis (A549 cells; [1])	Log Odds Ratio, KEGG pathway hsa04210 Apoptosis (A549 cells; [1])	Log Odds Ratio, KEGG pathway hsa05200 Pathways in cancer (A549 cells; [1])	Log Odds Ratio, KEGG pathway hsa05211 Renal cell carcinoma (A549 cells; [1])	Log Odds Ratio, KEGG pathway hsa05222 Small cell lung cancer (A549 cells; [1])	Log Odds Ratio, KEGG pathway hsa04510 Focal adhesion (A549 cells; A549 + rcGPBP-1 vs A549, 3 hours, P. adjusted 0.1579)	Log Odds Ratio, KEGG pathway hsa04914 Progesterone-mediated oocyte maturation (A549 cells; A549 + rcGPBP-1 vs A549, 3 hours, P. adjusted 0.1771)	Log Odds Ratio, KEGG pathway hsa05218 Melanoma (A549 cells; A549 + rcGPBP-1 vs A549, 3 hours, P. adjusted 0.3348)	changes in the expression of individual genes (A549 cells; A549 cells, microarray)
O=c1c(O)c(-c2cc(O)c(O)c(O)c2)oc2cc(O)cc(O)c12 [myricetin]	inhibit the autophosphorylating activity of GPBP in vitro	efficient reduction														
CC(N/C(=N\C#N)Nc1ccncc1)C(C)(C)C (centres unmarked) [pinacidil]	inhibit the autophosphorylating activity of GPBP in vitro		significant reduced expression	sharply reduced	lost											
rcGPBP-1: Recombinant cGPBP-1 purified from culture media of a HEK 293 cell clone that constitutively secretes FLAG-GPBP-1 (protein) MSDNQSWNSSGSEEDPETESGPPVERCGVLSKWTNYIHGWQDRWVVLKNNALSYYKSEDETEYGCRGSICLSKAVITPHDFDECRFDISVNDSVWYLRAQDPDHRQQWIDAIEQHKTESGYGSESSLRRHGSMVSLVSGASGYSATSTSSFKKGHSLREKLAEMETFRDILCRQVDTLQKYFDACADAVSKDELQRDKVVEDDEDDFPTTRSDGDFLHSTNGNKEKLFPHVTPKGINGIDFKGEAITFKATTAGILATLSHCIELMVKREDSWQKRLDKETEKKRRTEEAYKNAMTELKKKSHFGGPDYEEGPNSLINEEEFFDAVEAALDRQDKIEEQSQSEKVRLHWPTSLPSGDAFSSVGTHRFVQKPYSRSSSMSSIDLVSASDDVHRFSSQVEEMVQNHMTYSLQDVGGDANWQLVVEEGEMKVYRREVEENGIVLDPLKATHAVKGVTGHEVCNYFWNVDVRNDWETTIENFHVVETLADNAIIIYQTHKRVWPASQRDVLYLSVIRKIPALTENDPETWIVCNFSVDHDSAPLNNRCVRAKINVAMICQTLVSPPEGNQEISRDNILCKITYVANVNPGGWAPASVLRAVAKREYPKFLKRFTSYVQEKTAGKPILF						0.1444	−0.1522	−0.1130	−0.1307	−0.0843	−0.1355	−0.1253	−0.0969	−0.1223	−0.1196	No statistically significant changes
